Data as given in patent US20230045791A1 (published 2023).
Read-outs that look alike come from different tables or passages of the source.

Tests used:
[1] = biological target: T1, rhesus monkey TNFR2 expressed on CHO cells (CHO.mkHFB3) (rhesus monkey, UniProt F7GUU0 22-457); assay: FACS cell binding
T1 chain: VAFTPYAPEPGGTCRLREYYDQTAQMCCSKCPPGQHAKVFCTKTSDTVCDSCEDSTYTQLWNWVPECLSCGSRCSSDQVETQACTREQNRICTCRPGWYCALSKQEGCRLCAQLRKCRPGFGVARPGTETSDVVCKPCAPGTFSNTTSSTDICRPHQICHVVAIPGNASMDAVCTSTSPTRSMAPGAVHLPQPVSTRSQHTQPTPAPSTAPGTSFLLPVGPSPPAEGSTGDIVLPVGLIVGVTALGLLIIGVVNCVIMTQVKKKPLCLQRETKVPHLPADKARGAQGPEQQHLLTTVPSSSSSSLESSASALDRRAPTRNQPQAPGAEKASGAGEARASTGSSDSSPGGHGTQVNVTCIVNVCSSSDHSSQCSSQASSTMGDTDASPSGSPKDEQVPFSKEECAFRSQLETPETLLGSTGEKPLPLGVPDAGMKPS

[2] = biological target: T1, rhesus monkey TNFR2 expressed on CHO …; assay: FACS cell binding
[3] = biological target: T2, human TNFR2 expressed on cells (CHO.hHFB3 / CHO.hTNFR2 cells; primary human T cells) (human, UniProt P20333 23-461); assay: FACS cell binding
T2 chain: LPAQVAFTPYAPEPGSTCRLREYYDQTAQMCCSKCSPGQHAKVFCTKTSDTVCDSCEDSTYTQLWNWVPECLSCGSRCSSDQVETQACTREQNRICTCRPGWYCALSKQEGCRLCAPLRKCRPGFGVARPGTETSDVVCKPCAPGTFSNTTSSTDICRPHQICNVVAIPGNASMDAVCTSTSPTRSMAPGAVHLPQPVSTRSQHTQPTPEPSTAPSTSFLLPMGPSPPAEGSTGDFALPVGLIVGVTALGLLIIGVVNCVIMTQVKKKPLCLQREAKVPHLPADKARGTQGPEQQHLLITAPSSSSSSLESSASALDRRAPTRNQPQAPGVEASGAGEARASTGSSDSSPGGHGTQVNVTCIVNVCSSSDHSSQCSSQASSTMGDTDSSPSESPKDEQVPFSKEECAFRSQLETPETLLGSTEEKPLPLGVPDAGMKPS

[4] = biological target: T3, His-tagged recombinant human TNFR2 (human, UniProt P20333 23-257); assay: ELISA
T3 chain: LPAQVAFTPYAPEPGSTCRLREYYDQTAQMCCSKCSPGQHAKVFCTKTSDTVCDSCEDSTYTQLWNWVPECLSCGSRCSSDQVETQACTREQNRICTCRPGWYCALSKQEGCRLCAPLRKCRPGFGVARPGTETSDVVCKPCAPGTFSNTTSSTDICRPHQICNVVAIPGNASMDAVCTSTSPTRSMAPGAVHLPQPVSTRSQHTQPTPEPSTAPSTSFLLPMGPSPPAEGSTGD

[5] = biological target: T3, His-tagged recombinant human TNFR2; assay: BLI (AHC biosensor)
[6] = biological target: T3, His-tagged recombinant human TNFR2; assay: Octet BLI
[7] = biological target: T2, human TNFR2 expressed on cells …; assay: FACS cell binding; IgG1AA format
[8] = biological target: T1, rhesus monkey TNFR2 expressed on CHO …; assay: FACS cell binding
[9] = biological target: T2, human TNFR2 expressed on cells …; assay: FACS cell binding
[10] = biological target: T2, human TNFR2 expressed on cells …; assay: FACS cell binding; IgG1AA format

B1: HFB3-14-hG1 (mouse monoclonal antibody) (antibody, V domains shown)
VH: EVQLQQSGPELVKPGASVRISCKASGYTFTDYYMNWVKQSHGKSLEWIGDINPNDGGTTYSQKFKGKATLTVDKSSSTAYMELRSLTSEDSAVYFCAREGNYYAYDVRVWYFDVWGTGTTVTVSS
VL: DIQMTQSPASLSVSVGETVTITCRSSENIYSNLAWYQQKQGKSPQLLVYAATNLADGVPSRFSGSGSGTQYSLKINSLQSEDFGSYYCQHFWGTPWTFGGGTKLEIKR
- EC50 [1]: 2.13 nM
- EC50 [2]: 2.15 nM

B2: HFB3-18-hG1 (mouse monoclonal antibody) (antibody, V domains shown)
VH: EVKLEESGGGLVQPGGSMKLSCAASGFTFSDAWMDWVRQSPEKGLEWVAEVRNKANNHATYYAESVKGRFTISRDDSKSSVYLQMNSLRAEDTGIYYCTRSVGGYGTTYWYFDVWGTGTTVTVSS
VL: DIVMTQSPSSLSVSAGEKVTMSCKSSQNLLNSGNQKNYLAWYQQKPGQPPKLLIFGASTRESGVPDRFTGSGSGTDFTLTISSVQAEDLAVYYCQSEHSYPYTFGGGTKLEIKR
- EC50 [3]: 4.17 nM
- EC50 [1]: 4.85 nM
- EC50 [4]: 49.8 nM
- Kd [5]: 4.2 nM

B3: HFB3-1-hG1 (mouse monoclonal antibody) (antibody, V domains shown)
VH: EFQLQQSGPELVKPGASVKISCKASSYSFTDYNMNWVKQSNGKSLEWIGIIFPKYGTTSYNQKFKGKATLTVDQSSSTAYMQLNSLTSEDSAVYYCATDGGTWYFDVWGTGTTVTVSS
VL: QIVLTQSPALMSASPGEKVTMTCSASSSVTYMYWYQQKPRSSPKPWIYLTSNLASGVPARFSGSGSGTSYSLTISSMEAEDAATYYCQQWSSNPPTFGSGTKLEIKR
- EC50 [3]: 0.48 nM
- EC50 [1]: 0.6 nM
- Kd [6]: 6.3 nM
- EC50 [7]: 0.905 nM
- EC50 [4]: 0.06 nM
- Kd [5]: 1.4 nM
- EC50 [8]: 5.37 nM

B4: HFB3-14hz1c-hG1 (humanized monoclonal antibody) (antibody, V domains shown)
VH: QVQLVQSGAEVKKPGSSVKVSCKASGYTFTDYYMNWVRQAPGQGLEWMGDINPNDGGTTYAQKFQGRVTITADESTSTAYMELSSLRSEDTAVYFCAREGNYYAYDVRVWYFDVWGQGTTVTVSS
VL: DIQMTQSPSSLSASVGDRVTITCGASQDIITYLNWYQQKPGKAVKLLIYSTSSLNSGVPSRFSGSGSGTDFTLTISSLQPEDFATYYCQQYSELPYTFGGGTKVELKR
- Kd [6]: 2.8 nM
- EC50 [9]: 1.77 nM
- EC50 [2]: 0.7 nM
- EC50 [10]: 2.9 nM

B5: HFB3-1hz6-hG1 (humanized monoclonal antibody) (antibody, V domains shown)
VH: QVQLVQSGAELKKPGASVKVSCKASSYSFTDYNMNWVRQAPGQSLEWMGIIFPKYGTTSYAQKLQGRVTLTTDTSTSTAYMELRSLRSDDTAVYYCATDGGTWYFDVWGTGTTVTVSS
VL: DIQLTQSPSFLSASVGDRVTITCRASSSVTYMYWYQQKPGKAPKPWIYLTSNLASGVPSRFSGSGSGTEYTLTISSLQPEDAATYYCQQWSSNPPTFGSGTKLEIKR
- Kd [6]: 15.2 nM
- EC50 [7]: 4.07 nM
- EC50 [8]: 19.1 nM
